# From US12458692B2, “Self-assembling peptide scaffold” (Hexamer Therapeutics, Inc., priority 2018, dated 2025)
# Where no end group is shown, it is not given here.
# Experiment: Blue native PAGE of the peptide hydrated in 1×PBS (self-assembly)
# Format: physicochemical
# Settings: dissolved in 1×PBS, 5 min at room temperature, Blue NativePAGE Bis-Tris gel
# Description: The peptide (SEQ ID NO: 15) was synthesized by SPPS and lyophilized for storage. The peptide was dissolved in 1×PBS and then loaded onto a blue native PAGE gel and size fractionated by electrophoresis through a 4-16% acrylamide gradient gel for 90 min at 150 V (constant). The gel was fixed in methanol:acetic acid:water and then rinsed in the same solution to destain. Lane 1 is BSA as a reference protein, and Lane 2 is the self-assembled hexamer. MW standards (which are not shown) are on the right. BSA is 66 kDa and the hexamer has an expected size of 20.7 kDa.
# Experiments were performed to confirm that a hexamer forms following hydration of the monomer, elucidate the solubility of epitope coupled hexamers, determine the maximum density of epitope coupling, and confirm that a hexameric structure is maintained following coupling of the epitope. A representative peptide, SEQ ID NO: 15, was synthesized using the protocols previously described. A methionine and aspartic acid residue were placed on the N-terminus, and the methionine residue was protected by acetylation to form Acetyl-MD-(SEQ ID NO: 15). Following SPPS, the peptide was lyophilized for storage. To show self-assembly, the peptide was dissolved in 1×PBS buffer, incubated at room temperature for 5 min, and loaded onto a Blue NativePAGE Novex Bis-Tris Gel using the system purchased from Life Technologies. […]
sequence,measurement,setting,value
"LRSIGKDLRSIGRDLRSIGKDLRSIGRD (Ac-MDLRSIGKDLRSIGRDLRSIGKDLRSIGRD; also: hexamer) [Acetyl-MD-(SEQ ID NO: 15), Representative self-assembling peptide made by SPPS; forms the hexamer on hydration]",higher order structures or aggregates,,no detectable higher order structures or aggregates
same,oligomeric state after hydration (self-assembly),expected hexamer size 20.7 kDa,self-assembly of the hexamer
